# Results taken from patent publication US20200317776A1 (published 2020).
# T1: human TREM2 Fc fusion (entire TREM2 ECD; only one Fc arm fused to TREM2) (human, UniProt Q9NZC2 19-174)
# T1 construct: also called huTREM2-Fc; recombinant hTREM2
# T1 sequence: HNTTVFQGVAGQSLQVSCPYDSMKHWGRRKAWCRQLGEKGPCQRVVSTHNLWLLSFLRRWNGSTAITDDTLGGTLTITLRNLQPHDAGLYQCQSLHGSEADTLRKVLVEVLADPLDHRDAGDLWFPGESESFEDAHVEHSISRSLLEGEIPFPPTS
# T2: cynomolgus monkey TREM2 Fc fusion (entire TREM2 ECD; only one Fc arm fused to TREM2) (cynomolgus monkey, UniProt Q9NZC2 19-174 (human entry))
# T2 construct: also called cyno TREM2-Fc
# T2 chain: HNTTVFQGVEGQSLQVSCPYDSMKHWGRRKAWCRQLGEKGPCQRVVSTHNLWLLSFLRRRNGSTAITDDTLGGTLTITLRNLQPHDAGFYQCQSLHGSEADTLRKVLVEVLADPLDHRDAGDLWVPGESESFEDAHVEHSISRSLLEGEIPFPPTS
# T3: human TREM2 expressed on cells (human, UniProt Q9NZC2 19-230)
# T3 construct: BW5147.G.1.4 cells stably expressing human TREM2 together with Dap12, or endogenous TREM2 of primary human myeloid cells; also called huT2 BW; hTREM2 expressing cell line
# T3 sequence: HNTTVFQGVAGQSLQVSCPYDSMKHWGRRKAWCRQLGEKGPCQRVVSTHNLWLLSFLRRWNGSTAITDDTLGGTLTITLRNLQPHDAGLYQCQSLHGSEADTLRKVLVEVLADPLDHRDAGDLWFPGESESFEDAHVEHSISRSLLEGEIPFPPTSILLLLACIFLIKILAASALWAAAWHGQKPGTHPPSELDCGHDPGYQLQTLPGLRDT
# Key:
# [1] = biological target: T1, human TREM2 Fc fusion (entire TREM2 …); test: BLI, IgG, avid
# Method: Briefly, IgGs were loaded on-line onto AHQ sensors, Sensors were equilibrated off-line in assay buffer for 30 minutes and then monitored on-line for 60 seconds for baseline establishment. For avid binding measurement, sensors with loaded IgGs were exposed to 100 nM antigen (human or cynomolgus monkey TREM2 Fe fusion using the entire TREM2 ECD; only one Fc arm was fused to TREM2) for 3 minutes, afterwards they were transferred to assay buffer for 3 minutes for off-rate measurement. Monovalent binding measurements were obtained by loading human TREM2 Fc fusion antigens to AHQ sensor and followed by exposure to 100 nM TREM2 antibody Fab. Kinetics data were fit using a 1:1 binding model in the data analysis software provided by ForteBio. Assay was run at room temperature (25° C.).
# [2] = biological target: T1, human TREM2 Fc fusion (entire TREM2 …); test: BLI, Fab, monovalent
# [3] = biological target: T2, cynomolgus monkey TREM2 Fc fusion …; test: BLI, Fab, monovalent
# [4] = biological target: T3, human TREM2 expressed on cells; test: FACS, hTREM2 BW cells
# From the text: To examine cell binding of affinity matured anti-TREM2 antibodies, both primary human monocyte derived dendritic cells and recombinant, human TREM2 expressing cells were utilized. For the latter, BW5147.G.1.4 (ATCC® TIB48™) and HEK293T cells stably expressing human TREM2 together with Dap12 using viral infection were established. For primary human monocyte derived dendritic cells, human monocytes were isolated from whole blood using RosetteSep Human monocyte enrichment cocktail (Stemcell technologies) and Ficoll centrifugation per manufacturer protocols. After lysing red blood cells with ACK lysing buffer, monocytes were resuspended in complete media (RPMI, 10% FBS, Pen/Strep, L-glutamine, HEPES, non-essential amino acid, Sodium pyruvate) with 100 ng/ml human GM-CSF (hu-GMCSF) and, human IL-4 (hu-IL-4) to differentiate dendritic cells for 6 days.
# Cells were harvested by trypsinization (Hek293T) or scraping (BW and dendritic cells), washed in PBS, counted and plated on 96-well U bottom plates at […] cells/well. The plates were spun at 1,400 rpm for 3 minutes and primary TREM2 or control antibodies were added in FACS buffer (PBS+2% FBS) and incubated on ice for one hour. Cells were subsequently centrifuged as before and washed thrice with FACS buffer. Cells were then incubated with anti-human PE conjugated secondary antibody (BD Biosciences) in FACS buffer for 30 minutes on ice. Cells were again washed thrice with FACS buffer and analyzed on a BD FACS Canto or an Intellicyt Flow Cytometer. Binding was measured as mean fluorescence intensity in the APC channel.
# [5] = biological target: human TREM2/DAP12 fusion protein (human, UniProt O43914 41-113, limits assumed); test: cell-based or functional assay
# Chain of human TREM2/DAP12 fusion protein (O43914 other isoform, or with tags, fused parts or gaps limits assumed): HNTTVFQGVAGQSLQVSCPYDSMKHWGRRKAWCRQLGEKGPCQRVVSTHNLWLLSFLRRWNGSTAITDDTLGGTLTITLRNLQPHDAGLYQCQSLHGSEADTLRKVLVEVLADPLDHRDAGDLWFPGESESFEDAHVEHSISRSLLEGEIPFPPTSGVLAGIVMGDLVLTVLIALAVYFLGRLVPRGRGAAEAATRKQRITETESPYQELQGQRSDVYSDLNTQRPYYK
Kd [1] [nM],Kd [2] [nM],Kd [3] [nM],Kd [4] [nM],"Luciferase activation plate bound 33 nM IgG, FOC [5] [FOC]","Luciferase activation soluble 10 nM IgG, FOC [5] [FOC]",Binder
0.427,8.38,8.95,1.6,18.9,2.35,"AL2p-7 (antibody, V domains shown, Fab and IgG formats under one id) VH: QVQLVQSGAEVKKPGSSVKVSCKASGYAFSLSWMNWVRQAPGQGLEWMGRIYPGDGDTNYAQKFRGRVTITADESTSTAYMELSSLRSEDTAVYYCARLLRNQPGESYAMDYWGQGTLVTVSS VL: GVVMTQTPLSLSVTPGQPASISCRSSQSLIHSNGYTYLHWYLQKPGQSPQLLIYKVSNRRSGVPDRFSGSGSGTDFTLKISRVEAEDVGVYYCSQSTRVPYTFGQGTKLEIK"
,3730,3.84,,,,"AL2p-61 (antibody, IgG1, V domains shown) VH: QVQLVQSGAEVKKPGSSVKVSCKASGYAFSSQWMNWVRQAPGQGLEWMGRIYPGEGDTNYARKFQGRVTITADESTSTAYMELSSLRSEDTAVYYCARLLRNQPGESYAMDYWGQGTLVTVSS VL: GVVMTQTPLSLSVTPGQPASISCRSSQSLVHSNQYTYLHWYLQKPGQSPQLLIYKVSNRRSGVPDRFSGSGSGTDFTLKISRVEAEDVGVYYCSQSTRVPYTFGQGTKLEIK"
0.835,18.5,27.7,3.1,4.63,1.6,"AL2p-10 (antibody, V domains shown, Fab and IgG formats under one id) VH: QVQLVQSGAEVKKPGSSVKVSCKASGYAFSSDWMNWVRQAPGQGLEWMGRIYPGDGDTNYAQKFQGRVTITADESTSTAYMELSSLRSEDTAVYYCARLLRNQPGESYAMDYWGQGTLVTVSS VL: GVVMTQTPLSLSVTPGQPASISCRSSQSLVHSNGYTYLHWYLQKPGQSPQLLIYKVSNRRSGVPDRFSGSGSGTDFTLKISRVEAEDVGVYYCSQSTRVPYTFGQGTKLEIK"
0.536,9.83,10.2,2.4,23.6,1.71,"AL2p-11 (antibody, V domains shown, Fab and IgG formats under one id) VH: QVQLVQSGAEVKKPGSSVKVSCKASGYAFSSDWMNWVRQAPGQGLEWMGRIYPGDGDTNYARKFQGRVTITADESTSTAYMELSSLRSEDTAVYYCARLLRNQPGESYAMDYWGQGTLVTVSS VL: DVVMTQTPLSLSVTPGQPASISCRSSRSLVHSNGYTYLHWYLQKPGQSPQLLIYKVSNRVSGVPDRFSGSGSGTDFTLKISRVEAEDVGVYYCSQSTRVPYTFGQGTKLEIK"
0.514,5.86,5.25,1.8,15.8,1.96,"AL2p-12 (antibody, V domains shown, Fab and IgG formats under one id) VH: QVQLVQSGAEVKKPGSSVKVSCKASGYAFSSHWMNWVRQAPGQGLEWMGRIYPGDGDTNYAHKFQGRVTITADESTSTAYMELSSLRSEDTAVYYCARLLRNQPGESYAMDYWGQGTLVTVSS VL: GVVMTQTPLSLSVTPGQPASISCRSSQSLVHSNGYTYLHWYLQKPGQSPQLLIYKVSNRRSGVPDRFSGSGSGTDFTLKISRVEAEDVGVYYCSQSTRVPYTFGQGTKLEIK"
0.34,4.8,4.93,1.5,16.5,2.17,"AL2p-13 (antibody, V domains shown, Fab and IgG formats under one id; also called AL22-13) VH: QVQLVQSGAEVKKPGSSVKVSCKASGYAFSSHWMNWVRQAPGQGLEWMGRIYPGDGDTNYAQKFKGRVTITADESTSTAYMELSSLRSEDTAVYYCARLLRNQPGESYAMDYWGQGTLVTVSS VL: GVVMTQTPLSLSVTPGQPASISCRSSQSLIHSNGYTYLHWYLQKPGQSPQLLIYKVSNRRSGVPDRFSGSGSGTDFTLKISRVEAEDVGVYYCSQSTRVPYTFGQGTKLEIK"
